One molecule from patent publication US20100166772A1, “ANTIGEN-BINDING PROTEINS TARGETING S. AUREUS ORF0657n” (priority 2007, published 2010) can be followed below.

For one experiment, the system named is S. aureus. Kind of experiment: Opsonophagocytosis activity (OPA) assay with HL60_DMF cells. The format is cell-based. As to conditions: FIGS. 4 and 5. An excerpt: An opsonophagocytosis activity (OPA) assay was developed to evaluate an antibody's ability to opsonophagocytose. The assay measures the ability of antibodies to bind and fix complement (C′) to the bacterial surface, which results in an increase in the level of phagocytosis of these bacteria by granulocytic effecter cells.
ORF0657n is an iron regulated protein on the surface of S. aureus that appears to be involved in heme/Fe acquisition. […] For this assay the strain is iron starved to increase the expression of ORF0657n. This strain also lacks the ability to produce Protein A. Protein A can bind to the Fc portion of any IgG and the presence of this non-specifically bound antibody could interfere in the OPA reaction.
HL60 cells were exposed to dimethylformamide (DMF) for five to six days to induce the cells to differentiate towards a more granulocytic phenotype. Next, 2% C′-sufficient gnotobiotic pig serum was added to the antibody bound cells. Finally, the antibody and C′ exposed cells were then labeled with the fluorescent chemical 5′, 6′-FAM-SE.
After incubation of opsonized, fluorescently-labeled bacteria and unlabeled HL60_DMF cells, the level of phagocytosis was determined by measuring the percentage of HL60_DMF cells containing labeled bacteria by flow cytometry. […]

The next experiment relates to ORF0657n. As to conditions: Luminex binding assay.

Method for ORF0657n: Construction of ORF0657n-bead—9.4×10^6 Radix maleimide microspheres (Georgetown, Tex.) were coupled to 750 μg ORF0657n-Se (ORF0657n containing carboxyl terminal cysteine group) at room temperature for 2 hours. Beads were washed 3 times with 1 ml PBS and then quenched with 1 M N-acetyl-L-cysteine (Sigma) for 2 hours at room temperature. Microspheres were washed 3× in PBS. Beads were enumerated and re-suspended at a final concentration of 500 microspheres/μl.
Detection of Competition between CAT ScFvs and CAT mAbs—CAT scFvs were individually competed against the CAT antibodies in the Luminex cLIA assay. ScFvs were diluted 1:4, 1:8, 1:16 and 1:32 in PBS-TBN (0.05% Tween 20, 1% BSA and 0.05% sodium azide) and incubated with 5000 ORF0657n-coupled microspheres in a Multiscreen filter plate (Millipore) for 1 hour, 15 minutes at room temperature. The beads were then washed 3× with PBS with 0.05% Tween 20 (PBS/Tween20). The individual antibodies were diluted in PBS-TBN to a final concentration of 2 μg/ml and added to separate plates. […] Microspheres were re-suspended in PBS/Tween20 and the median fluorescent signal was read using a Bio-Plex luminometer (BioRad). ScFvs were considered competitive if the median fluorescent signal was reduced by at least 30% over the signal detected for non-competitive scFvs for at least two dilutions.

B1: mAb CS-D10: IgG1 antibody, light chain variable region SEQ ID NO: 5, heavy chain variable region SEQ ID NO: 6, lambda (antibody, V domains shown)
VH: QVQLQESGPGLVKPSETLSLTCTVSGGSIRSSSYYWGWFRQTPGKGLEWLGNVFFSGSAYYNPSLKSRVTISIDTSENQSSLKLTSVTAADTAVYYCARPQAYSHDSSGHSPFDLWGRGTMVTVSS
VL: QAVLTQPSSVSGAPGQRVTISCTGGSSNIGAGYDVHWYQQIPGTAPKLLIYGNSNRPSGVPDRFSGSKSGTSASLAITGLQAEDEADYYCQSYDSSLNGPVVFGGGTKVTVLG
modifications: mAb CS-C10 heavy chain variable region; mAb CS-C10 light chain variable region
For the molecule B1, in the experiment on S. aureus, the “opsonic activity compared to isotype control” value is “higher opsonic activity compared to their IgG1 isotype control”. Besides, the “mAbs compete for binding to the same epitope” value with ORF0657n was “compete for binding to the same epitope”.
